Experimental data reported in PMC7935953, “Insights on autophagosome–lysosome tethering from structural and biochemical characterization of human autophagy factor EPG5” (Communications Biology, 2021).

What was measured:
Assay in all cases: pull-down; GST pull-down: purified GST-LC3A/B/C or GST-GABARAP/L1/L2 bait (200–240 µg) on glutathione resin, purified His-FLAG-hEPG5 or mutant (25–30 µg) as prey; 50 mM Tris pH 8.0, 150 mM NaCl, 5% glycerol, 0.01% Tween20, 0.5 mM DTT, 4 °C; anti-FLAG fluorescence western blot
[1] = target: GST-GABARAP (human) (UniProt O95166)
Sequence of GST-GABARAP (human) (O95166 whole entry): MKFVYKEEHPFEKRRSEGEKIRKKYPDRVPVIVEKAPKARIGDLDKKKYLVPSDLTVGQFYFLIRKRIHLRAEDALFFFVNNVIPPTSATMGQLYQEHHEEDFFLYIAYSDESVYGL

[2] = target: GST-GABARAPL2 (human) (UniProt P60520)
Sequence of GST-GABARAPL2 (human) (P60520 whole entry): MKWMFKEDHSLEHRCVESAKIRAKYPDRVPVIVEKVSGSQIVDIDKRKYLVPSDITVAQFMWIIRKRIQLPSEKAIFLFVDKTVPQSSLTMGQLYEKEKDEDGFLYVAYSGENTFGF

[3] = target: GST-GABARAPL1 (human) (UniProt Q9H0R8)
Sequence of GST-GABARAPL1 (human) (Q9H0R8 whole entry): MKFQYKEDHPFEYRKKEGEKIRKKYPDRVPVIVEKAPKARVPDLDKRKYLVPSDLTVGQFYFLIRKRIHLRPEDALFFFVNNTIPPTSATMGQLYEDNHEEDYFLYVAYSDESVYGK

Measured: fold more hEPG5 precipitated than by the LC3 subfamily

His-FLAG-hEPG5 (human EPG5, full length, wild type), Q9HCE0 1-2579
2.5 times: all assays above
